Reference: article PMC2680492 (The Journal of neuroscience : the official journal of the …, 2008)

T1: His×6-HDAC6-FLAG (human, UniProt Q9UBN7 1-1215)
T1 sequence (looked up): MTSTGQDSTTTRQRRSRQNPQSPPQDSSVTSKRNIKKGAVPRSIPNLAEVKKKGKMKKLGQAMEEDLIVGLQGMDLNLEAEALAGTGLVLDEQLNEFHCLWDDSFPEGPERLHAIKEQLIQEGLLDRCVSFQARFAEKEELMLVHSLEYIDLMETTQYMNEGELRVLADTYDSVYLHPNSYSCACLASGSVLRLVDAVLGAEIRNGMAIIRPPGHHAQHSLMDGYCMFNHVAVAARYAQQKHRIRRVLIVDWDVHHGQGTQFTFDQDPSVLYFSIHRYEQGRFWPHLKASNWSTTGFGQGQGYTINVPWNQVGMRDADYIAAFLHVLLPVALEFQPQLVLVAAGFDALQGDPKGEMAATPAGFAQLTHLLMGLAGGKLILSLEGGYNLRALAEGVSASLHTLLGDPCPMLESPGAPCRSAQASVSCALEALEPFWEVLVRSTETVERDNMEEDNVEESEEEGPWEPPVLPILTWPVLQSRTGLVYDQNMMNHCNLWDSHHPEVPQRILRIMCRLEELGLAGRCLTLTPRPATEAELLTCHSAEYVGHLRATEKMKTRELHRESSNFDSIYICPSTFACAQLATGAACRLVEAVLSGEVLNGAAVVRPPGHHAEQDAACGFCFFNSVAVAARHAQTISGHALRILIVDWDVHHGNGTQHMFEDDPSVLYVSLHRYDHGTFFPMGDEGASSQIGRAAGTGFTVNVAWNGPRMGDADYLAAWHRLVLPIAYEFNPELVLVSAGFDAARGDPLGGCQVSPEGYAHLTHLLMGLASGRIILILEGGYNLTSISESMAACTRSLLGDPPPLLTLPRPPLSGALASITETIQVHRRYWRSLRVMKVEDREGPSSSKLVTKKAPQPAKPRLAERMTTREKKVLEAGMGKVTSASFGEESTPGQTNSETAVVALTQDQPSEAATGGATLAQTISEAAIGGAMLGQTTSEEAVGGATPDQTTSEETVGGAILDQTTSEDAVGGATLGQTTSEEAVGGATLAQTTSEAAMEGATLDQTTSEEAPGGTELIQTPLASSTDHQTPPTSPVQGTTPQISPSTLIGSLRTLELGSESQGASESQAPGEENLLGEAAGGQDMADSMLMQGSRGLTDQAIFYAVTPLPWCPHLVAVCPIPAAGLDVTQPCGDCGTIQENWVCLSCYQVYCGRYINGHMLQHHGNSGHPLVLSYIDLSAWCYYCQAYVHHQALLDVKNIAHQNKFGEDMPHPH

T2: His×6-DD1-FLAG (human, UniProt Q9UBN7 106-439)
T2 sequence (looked up): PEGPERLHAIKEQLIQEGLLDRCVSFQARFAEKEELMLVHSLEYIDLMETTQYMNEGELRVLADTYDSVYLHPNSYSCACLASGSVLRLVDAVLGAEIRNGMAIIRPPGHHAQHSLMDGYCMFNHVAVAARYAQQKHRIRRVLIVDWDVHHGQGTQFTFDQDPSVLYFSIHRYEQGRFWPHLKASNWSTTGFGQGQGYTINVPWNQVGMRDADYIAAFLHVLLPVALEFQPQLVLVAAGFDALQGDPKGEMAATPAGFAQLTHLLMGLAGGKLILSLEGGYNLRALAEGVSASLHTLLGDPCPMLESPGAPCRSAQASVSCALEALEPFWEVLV

T3: His×6-DD2-FLAG (human, UniProt Q9UBN7 440-840)
T3 sequence (looked up): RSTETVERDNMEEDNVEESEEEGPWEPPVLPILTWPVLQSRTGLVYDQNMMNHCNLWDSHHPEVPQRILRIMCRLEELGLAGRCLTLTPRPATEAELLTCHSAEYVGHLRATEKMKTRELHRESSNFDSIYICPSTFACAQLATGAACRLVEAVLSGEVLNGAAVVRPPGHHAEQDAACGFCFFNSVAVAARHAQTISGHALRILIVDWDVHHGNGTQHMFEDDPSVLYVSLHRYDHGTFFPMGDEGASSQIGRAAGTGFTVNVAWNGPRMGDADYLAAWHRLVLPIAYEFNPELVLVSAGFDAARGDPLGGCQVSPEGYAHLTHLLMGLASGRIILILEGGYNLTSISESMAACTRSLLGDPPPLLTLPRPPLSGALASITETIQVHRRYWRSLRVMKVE

B1: GST-tagged parkin RING1 domain (R1) (domain or fragment, human, UniProt O60260 217-310, looked up)
chain: TSDKETSVALHLIATNSRNITCITCTDVRSPVLVFQCNSRHVICLDCFHLYCVTRLNDRQFVHDPQLGYSLPCVAGCPNSLIKELHHFRILGEE
B2: GST-tagged parkin RING2 domain (R2) (domain or fragment, human, UniProt O60260 395-465, looked up)
chain: ERAAEQARWEAASKETIKKTTKPCPRCHVPVEKNGGCMHMKCPQPQCRLEWCWNCGCEWNRVCMGDHWFDV
B3: GST-tagged parkin Linker domain (L) (domain or fragment, human, UniProt O60260 77-237, looked up)
chain: GQEMNATGGDDPRNAAGGCEREPQSLTRVDLSSSVLPGDSVGLAVILHTDSRKDSPPAGSPAGRSIYNSFYVYCKGPCQRVQPGKLRVQCSTCRQATLTLTQGPSCWDDVLIPNRMSGECQSPHCPGTSAEFFFKCGAHPTSDKETSVALHLIATNSRNIT

What was measured:
Experiment in all cases: pull-down
[1] = target: T1, His×6-HDAC6-FLAG
[2] = target: T2, His×6-DD1-FLAG
[3] = target: T3, His×6-DD2-FLAG

| Binder | binding result [1] | binding result [2] | binding result [3] |
| --- | --- | --- | --- |
| B1 | binds | binds |  |
| B2 | binds |  | binds |
| B3 | binds | binds |  |
